Consider 7 molecules from patent US20250236663A1 (NEURACLE SCIENCE, published 2025).

For assay [1], the target named is T1, FAM19A5 mutant M6 (human).
T1 construct: FAM19A5 with region 6 replaced by the consensus of FAM19A1-4; The entry already carries the changes
T1 chain: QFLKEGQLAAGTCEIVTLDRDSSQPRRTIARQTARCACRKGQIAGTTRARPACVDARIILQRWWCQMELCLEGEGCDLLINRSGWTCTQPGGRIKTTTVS
Description: ELISA on phage-displayed FAM19A5 mutants; y axis without label; no blank in the panel, lowest bars about 0.05.

In assay [2] the target is T2, FAM19A5-M5.
T2 construct: also called FAM19A5 mutant M5
T2 FAM19A5 mutant: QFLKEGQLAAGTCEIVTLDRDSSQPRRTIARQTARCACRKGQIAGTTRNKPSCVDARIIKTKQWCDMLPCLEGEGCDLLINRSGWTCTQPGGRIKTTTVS
The assay is described as above.

The target in assay [3] is T2, FAM19A5-M5. The assay can be described thus: ELISA on phage-displayed FAM19A5 mutants; y axis without label; no blank in the panel. For orientation: In an ELISA, binding on a coated surface is turned into a signal by an enzyme label.
In assay [4] the target is T1, FAM19A5 mutant M6. Description: ELISA on phage-displayed FAM19A5 mutants; y axis without label.
Assay [5] concerns the target T3, FAM19A5 fragment 5 mutant peptide F5-2 (#2) (human).
T3 construct: The entry already carries the alanine substitution and Ser for Cys; also called mutant peptide #2
The assay can be described thus: ELISA on the coated F5 mutant peptide. The procedure:
(§1) Overlapping peptide fragments (F1-F6, see FIG. 9) of the human FAM19A5 protein were synthesized and conjugated to BSA. Binding of the different anti-FAM19A5 antibodies to the BSA-conjugated peptide fragments F1-F6 was determined by Western blot analysis or ELISA assay. For the Western blot analysis, BSA-conjugated FAM19A5 fragments F1-F6 were separated by SDS polyacrylamide gel electrophoresis and transferred to a nitrocellulose membrane by the standard procedure. The membrane was incubated with the anti-FAM19A5 antibody (e.g., 1-65, 2 μg/ml, 1-65-scFv-rabbit Fc-SSS), and the antigen-antibody complexes were detected with the appropriate secondary antibody conjugated with horse-radish peroxidase (anti-rabbit IgG (Fc specific)-HRP, 1:4000 dilution). For the ELISA assay, the following protocol was used. FAM19A5 fragment F1-F6 (diluted to 1 μg/mL in 50 mM carbonate buffer (Biosesang) or to 20 μg/mL for high concentration analysis) were used to coat the wells of 96-well immuno plates (Thermo Scientific) (100 μL/well) overnight at 4° C. and then subsequently washed twice in 1×PBS. The plates were then blocked with the blocking buffer (100 μL/well) for 1 hour at room temperature. During the 1-hour incubation, the relevant anti-FAM19A5 antibodies were diluted to 1 μg/mL (or 20 μg/mL for high concentration analysis) in the diluent buffer. Once the plates were washed (2× using 1×PBS), the diluted anti-FAM19A5 antibodies were added to the appropriate wells, and the plates were incubated at room temperature for 1 hour. The plates were subsequently washed for a total of five times using the washing buffer. Next, the ODP substrate (prepared by dissolving one ODP tablet (O-phenylenediamine Dihydrochloride, Thermo) into 9 mL of sterilized deionized water and 1 mL of 10× stable Peroxide Stable buffer (Theromo)) was added to each of the wells, and the color change reaction was allowed to occur for 10 minutes. This reaction was stopped by adding 100 μL of 2N H2SO4 (Daejung) to the wells. The absorption value of each of the wells was detected at 492 nm using a 96-well microplate reader (Molecular Device).
(§2) Next, to identify the specific amino acid residues within the epitope fragment F5 that the 1-65 and P2-C12 antibodies bind to, different amino acid residues of the F5 fragment were replaced with alanine as shown in Table 9 (below).

For assay [6], the target named is T4, FAM19A5 fragment 5 mutant peptide F5-6 (#6) (human).
T4 construct: The entry already carries the alanine substitution and Ser for Cys; also called mutant peptide #6
T4 sequence (peptide, as listed by the source mutant): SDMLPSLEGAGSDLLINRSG
Description: ELISA on the coated F5 mutant peptide. The method, then: as §1, §2

For assay [7], the target named is T5, FAM19A5 fragment 5 mutant peptide F5-4 (#4) (human).
T5 construct: The entry already carries the alanine substitution and Ser for Cys; also called mutant peptide #4
T5 sequence (peptide, as listed by the source mutant): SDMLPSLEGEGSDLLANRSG
Description: ELISA on the coated F5 mutant peptide. The procedure: as §1, §2

Assay [8] concerns the target T6, FAM19A5 fragment 5 mutant peptide F5-1 (#1) (human).
T6 construct: The entry already carries the alanine substitution and Ser for Cys; also called mutant peptide #1
T6 peptide: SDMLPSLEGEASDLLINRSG
The assay can be described thus: ELISA on the coated F5 mutant peptide. The procedure:
as §1, §2

The target in assay [9] is T7, FAM19A5 fragment 5 mutant peptide F5-5 (#5) (human).
T7 construct: The entry already carries the alanine substitution and Ser for Cys; also called mutant peptide #5
T7 peptide: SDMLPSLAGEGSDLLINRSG
The assay can be described thus: ELISA on the coated F5 mutant peptide. The procedure: as §1, §2

The target in assay [10] is T8, FAM19A5 fragment 5 mutant peptide F5-3 (#3) (human).
T8 construct: The entry already carries the alanine substitution and Ser for Cys; also called mutant peptide #3
T8 sequence (peptide, as listed by the source mutant): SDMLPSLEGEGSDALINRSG
The assay can be described thus: ELISA on the coated F5 mutant peptide. The method, then: as §1, §2

Assay [11] addresses T9, FAM19A5 fragment 5 mutant peptide F5-8 (#8) (human).
T9 construct: The entry already carries the alanine substitution and Ser for Cys; also called mutant peptide #8
T9 peptide: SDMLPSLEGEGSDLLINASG
Description: ELISA on the coated F5 mutant peptide. The procedure: as §1, §2

T3 sequence (peptide, as listed by the source mutant): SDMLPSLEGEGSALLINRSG

B1: Anti-FAM19A5 (P1-A08) (antibody, V domains shown)
VH: QSLEESGGRLVTPGTPLTLTCTASGFSLSTYYMSWVRQAPGKGLEWIGIVYPSGTTYYANWAKGRFTISTASTTVDLMITSPTTEDTATYFCARGDSFGYGLWGPGTLVTVSS
VL: ELVLTQSPSVQVNLGQTVSLTCTADTLSRSYASWYQQKPGQAPVLLIYRDTSRPSGVPDRFSGSSSGNTATLTISGAQAGDEADYYCATSDGSGSNYQYVFGGGTQLTVT
notes: Only variable domains are tied to the name
Consider B1, for which the binding result with FAM19A5 mutant M6 [1] and with FAM19A5-M5 [2] was “binds” in each case.

B2: Anti-FAM19A5 (15A9) (antibody, V domains shown)
VH: QVQLQESGPGLVKPSETLSLTCTVSGGSISSYYWSWIRQPPGKGLEWIGYIYPSGSTNYNPSLKSRVTISVDTSKNQFSLNLKSVTAVDTAVYYCARVNPFGYYYAMDVWGQGTTVTVSS
VL: DIQMTQSPSSLSASVGDRITISCRASQSISTSLNWYQQTPGKAPRLLIYGASTLQSGVPSRFSGGGSGTDFSLTITSLQPEDFATYYCQESASIPRTFGQGTKLDIK
notes: as for B1
As to B2, the binding result with FAM19A5-M5 [3] is recorded as “binds”.

B3: Anti-FAM19A5 (P2-F07) (antibody, V domains shown)
VH: QSLEESGGRLVTPGTPLTLTCTASGFSLSSYYMNWVRQAPGKGLEWIGIIYPSGTTYYAGWAKGRFTISKTSTTVDLKITSPTSEDTATYFCARTVSGYFDIWGPGTLVTVSL
VL: ELDLTQTPPSLSASVGGTVTINCLASEDIYSALAWYQQKPGKPPTLLISGTSNLESGVPPRFSGSGSGTDYTLTIGGVQAEDAATYFCQGYSSYPLTFGAGTNVEIK
notes: as for B1
As for B3, the binding result in the assay with FAM19A5 mutant M6 [1] and in the assay with FAM19A5-M5 [2] was “binds” each time.

B4: Anti-FAM19A5 (P2-A01) (antibody, V domains shown)
VH: QEQLVESGGRLVTPGTPLTLSCTASGFFLSGYYMSWVRQAPGKGLEWIGIIYPSGSTDYASWAKGRFTISKTSTTVDLKITTPTTEDTATYFCARVAGYVGYGYETFFDIWGPGTLVTVSL
VL: ELVMTQTPPSLSASVGETVRIRCLASEDIYSGISWYQQKPGKPPTLLIYGASNLESGVPPRFSGSGSGSDYTLTIGGVQAEDAATYYCLGGVTYSSTGTHLTFGAGTNVEIK
notes: as for B1
As to B4, the binding result in the assay with FAM19A5 mutant M6 [1] and with FAM19A5-M5 [2] was “binds” throughout.

B5: Anti-FAM19A5 (P2-F11) (antibody, V domains shown)
VH: QEQLVESGGRLVTPGTTLTLTCTVSGFSLSSYGVSWVRQAPGKGLEWIGYIANNYNPHYASWAKGRFTISKTSSTTVDLKMTSLTTEDTATYFCARDNYGMDPWGPGTLVTVSS
VL: ELDLTQTPSSVSAAVGGTVTINCQASQSVYNNKNLAWYQQKPGQPPKLLIYAASTLASGVSSRFKGSGSGTQFTLTISDVQCDDAATYYCQGEFSCSSADCNAFGGGTELEIL
notes: as for B1
Turning to B5, the binding result in the assay with FAM19A5-M5 [2] was “binds”.

B6: Anti-FAM19A5 (P1-F02) (antibody, V domains shown)
VH: QSLEESGGRLVTPGTPLTLTCTASGFSLSNYYMGWVRQAPGEGLEWIGIIYASGSTYYASWAKGRFTISKTSTTVDLKMTSLTTEDTATYFCARIDIGVGDYGWAYDRLDLWGQGTLVTVSS
VL: ELDMTQTPPSLSASVGETVRIRCLASEDIYSGISWYQQKPGKPPTLLIYGASNLESGVPPRFSGSGSGTDYTLTIGGVQAEDAATYYCLGGYSYSSITFGAGTNVEIK
notes: as for B1
In the case of B6, the binding result with FAM19A5 mutant M6 [1] and with FAM19A5-M5 [2] was “binds” throughout.

B7: Anti-FAM19A5 (P2-C12) (antibody, V domains shown)
VH: QSLEESGGRLVTPGTPLTLTCTVSGFSLSTYAVTWVRQAPGKGLEWIGYINWRGGTSYANWAKGRFTISKTSSTTVDLKMTSPTTEDTATYFCARDASSGAAFGSYGMDPWGPGTLVTVSS
VL: ELDMTQTPSSVSAAVGGTVTIKCQASQSISSYLSWYQQKPGQPPKLLIYEASKLASGVPSRFSGSGYGTEFTLTISDLECADAATYYCQQGYSSTNVWNAFGGGTNVEIK
notes: Only variable domains are tied to the name; also called anti-FAM19A5 antibody P2-C12
B7: the binding result with FAM19A5 mutant M6 [4] is “no binding”; in the assay with FAM19A5-M5 [2], “binds”; in [6] it was “no binding”; in [8], “no binding”; in [11], “no binding”. The “O.D (492nm)” value in assay [5] is 3.65; in assay [6], 0.095; in assay [7], 3.86; in [8] it was 0.056; in [9], 3.49; in assay [10], 3.84. The “O.D (492nm)” value in [11] worked out at 0.1.
